Where two headings read alike, the source gives them in different places.

Data set [1] deals with the molecule itself. The data set is described as follows: SEC-MALS. For orientation: Size exclusion chromatography separates by hydrodynamic size, large species first.
Data set [2] concerns the molecule itself. As to the kind of experiment: SEC-MALS. This is another data set of the same source.
The target of another data set is T1, Ctp1 1-150 (Schizosaccharomyces pombe, UniProt O74986 1-150).
T1 sequence: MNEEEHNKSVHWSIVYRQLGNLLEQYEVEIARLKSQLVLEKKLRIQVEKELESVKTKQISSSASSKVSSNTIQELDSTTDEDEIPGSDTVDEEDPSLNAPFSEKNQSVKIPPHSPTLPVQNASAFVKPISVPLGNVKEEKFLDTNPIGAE
The data set is described as follows: EMSA.

In another data set the target is T2, Ctp1 151-294 (Schizosaccharomyces pombe, UniProt O74986 151-294).
T2 sequence: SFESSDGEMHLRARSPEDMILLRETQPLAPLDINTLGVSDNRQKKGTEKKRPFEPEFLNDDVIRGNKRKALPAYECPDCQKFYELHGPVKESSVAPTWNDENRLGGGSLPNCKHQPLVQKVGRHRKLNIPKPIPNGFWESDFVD
The data set is described as follows: EMSA.

The data set “crystal structure” concerns the molecule itself. As to the kind of experiment: crystal structure.
The target of a further data set is T3, Ctp1 61-294 (Schizosaccharomyces pombe, UniProt O74986 61-294).
T3 sequence: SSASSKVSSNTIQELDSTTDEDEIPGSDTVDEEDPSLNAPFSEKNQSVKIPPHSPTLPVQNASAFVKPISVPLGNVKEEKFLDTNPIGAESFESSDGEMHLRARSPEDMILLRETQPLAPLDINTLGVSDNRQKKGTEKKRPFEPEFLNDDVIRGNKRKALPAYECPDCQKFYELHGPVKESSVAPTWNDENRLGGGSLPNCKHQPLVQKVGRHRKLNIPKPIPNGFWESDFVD
The data set is described as follows: EMSA. Background: In EMSA bound probe runs differently from free probe, usually more slowly.

In a further data set the target is T4, Ctp1 WT (Schizosaccharomyces pombe, UniProt O74986 1-294).
T4 sequence: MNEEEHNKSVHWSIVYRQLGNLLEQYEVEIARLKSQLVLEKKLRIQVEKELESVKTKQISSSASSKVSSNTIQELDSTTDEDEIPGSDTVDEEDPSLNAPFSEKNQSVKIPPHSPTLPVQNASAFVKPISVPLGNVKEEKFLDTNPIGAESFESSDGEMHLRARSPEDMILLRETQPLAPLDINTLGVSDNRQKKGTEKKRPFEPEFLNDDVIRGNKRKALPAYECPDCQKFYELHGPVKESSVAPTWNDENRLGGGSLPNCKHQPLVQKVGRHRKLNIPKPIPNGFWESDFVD
The data set is described as follows: EMSA.

In another data set the target is T5, Ctp1 K231A (Schizosaccharomyces pombe, UniProt O74986 1-294, K231A).
T5 sequence: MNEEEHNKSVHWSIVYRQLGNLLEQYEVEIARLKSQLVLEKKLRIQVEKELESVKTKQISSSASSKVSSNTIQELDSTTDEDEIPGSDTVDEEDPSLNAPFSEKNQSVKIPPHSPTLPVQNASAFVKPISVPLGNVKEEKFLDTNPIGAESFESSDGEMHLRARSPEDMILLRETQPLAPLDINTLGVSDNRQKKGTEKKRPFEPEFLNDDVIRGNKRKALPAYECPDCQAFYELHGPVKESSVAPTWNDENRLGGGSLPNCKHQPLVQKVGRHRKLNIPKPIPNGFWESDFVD
As to the kind of experiment: EMSA.

The target of a further data set is T6, Ctp1 R273A (Schizosaccharomyces pombe, UniProt O74986 1-294, R273A).
T6 sequence: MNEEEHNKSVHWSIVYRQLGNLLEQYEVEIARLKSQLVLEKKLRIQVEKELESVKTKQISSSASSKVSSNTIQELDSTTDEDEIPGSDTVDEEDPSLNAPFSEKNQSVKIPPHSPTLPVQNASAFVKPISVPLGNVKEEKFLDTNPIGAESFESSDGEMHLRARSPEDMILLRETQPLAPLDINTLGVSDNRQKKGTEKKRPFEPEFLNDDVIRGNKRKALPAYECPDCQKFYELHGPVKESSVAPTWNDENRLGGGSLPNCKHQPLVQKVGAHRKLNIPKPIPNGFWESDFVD
As to the kind of experiment: EMSA.

In the next data set the target is T7, Ctp1 K219A (Schizosaccharomyces pombe, UniProt O74986 1-294, K219A).
T7 sequence: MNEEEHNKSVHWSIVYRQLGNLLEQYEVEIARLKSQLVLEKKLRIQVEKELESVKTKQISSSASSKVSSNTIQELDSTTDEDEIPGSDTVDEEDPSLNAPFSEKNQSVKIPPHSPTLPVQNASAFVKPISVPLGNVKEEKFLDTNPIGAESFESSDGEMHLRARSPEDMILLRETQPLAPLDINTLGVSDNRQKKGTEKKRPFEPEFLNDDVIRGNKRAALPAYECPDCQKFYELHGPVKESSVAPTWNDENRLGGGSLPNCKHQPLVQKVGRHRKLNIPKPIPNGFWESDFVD
The data set is described as follows: EMSA.

The next data set addresses T8, Ctp1 K276A (Schizosaccharomyces pombe, UniProt O74986 1-294, K276A).
T8 sequence: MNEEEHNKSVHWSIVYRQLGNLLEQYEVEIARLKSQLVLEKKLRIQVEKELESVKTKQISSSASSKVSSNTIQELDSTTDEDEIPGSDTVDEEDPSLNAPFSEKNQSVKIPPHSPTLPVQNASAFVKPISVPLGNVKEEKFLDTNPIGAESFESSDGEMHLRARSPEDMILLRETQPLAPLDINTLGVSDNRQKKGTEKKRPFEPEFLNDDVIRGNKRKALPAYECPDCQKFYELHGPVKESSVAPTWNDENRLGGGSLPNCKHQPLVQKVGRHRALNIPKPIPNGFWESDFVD
The data set is described as follows: EMSA.

For the next data set, the target named is T9, Ctp1 R275A (Schizosaccharomyces pombe, UniProt O74986 1-294, R275A).
T9 sequence: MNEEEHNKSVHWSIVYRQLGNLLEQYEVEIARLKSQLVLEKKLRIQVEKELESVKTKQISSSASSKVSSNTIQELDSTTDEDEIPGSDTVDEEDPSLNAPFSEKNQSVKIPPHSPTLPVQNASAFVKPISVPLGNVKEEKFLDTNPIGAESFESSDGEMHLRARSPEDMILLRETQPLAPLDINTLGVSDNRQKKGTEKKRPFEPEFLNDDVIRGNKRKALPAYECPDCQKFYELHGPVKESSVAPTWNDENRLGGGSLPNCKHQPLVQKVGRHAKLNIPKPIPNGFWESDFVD
As to the kind of experiment: EMSA.

Data set [3] concerns the molecule itself. The data set is described as follows: SEC-MALS. The source holds these as a separate data set.

Regarding VYRQLGNLLEQYEVEIARLKSQLVLEKKLRIQVEKELESVKTKQIS (domain or fragment, S. pombe, UniProt O74986 15-60, looked up) [MBP-Ctp1_(15–60)], in “SEC-MALS [1]”, the stoichiometry N (as a rule, a count of units in the complex or per binding partner) is 2.

B1: Ctp1_(1–60) (domain or fragment, S. pombe, UniProt O74986 1-60, looked up)
chain: MNEEEHNKSVHWSIVYRQLGNLLEQYEVEIARLKSQLVLEKKLRIQVEKELESVKTKQIS
Take B1: the “stoichiometry N” value in “SEC-MALS [2]” stood at 4.

B2: MBP-Ctp1_(1–60) (domain or fragment, S. pombe, UniProt O74986 1-60, looked up)
chain: MNEEEHNKSVHWSIVYRQLGNLLEQYEVEIARLKSQLVLEKKLRIQVEKELESVKTKQIS
Take B2: the “stoichiometry N” value in the data set “SEC-MALS [1]” worked out at 4.

B3: 39 bp dsDNA (39bpf/39bpr) (dsDNA)
DNA 1: CAGAGTCATAATATGCAGGTGCAGGTTATTCATGCTCGG
DNA 2: CCGAGCATGAATAACCTGCACCTGCATATTATGACTCTG
Take B3: the binding result with Ctp1 1-150 and with Ctp1 151-294 was “no binding” in each case.

B4: Ctp1_(5–60)-L51M (domain or fragment, S. pombe, UniProt O74986 5-60, looked up)
chain: EHNKSVHWSIVYRQLGNLLEQYEVEIARLKSQLVLEKKLRIQVEKEMESVKTKQIS
For the molecule B4, the binding result in the data set “crystal structure” is recorded as “binds”.

B5: fork (ssDNA/splay) (mixed)
DNA 1: GCAGGAGGTGGCGTCGGGTGGACGGGTGGATTGAAATTTAGGCTGGCACGGTCT
DNA 2: AGACCGTGCCAGCCTAAATTTCAATCCAAGGTCTCGACTAACTCTAGTCGTTGT
For B5, binding with Ctp1 61-294 was characterised by a dissociation constant (Kd) of 1 µM.

B6: ssDNA 54 nt (ssDNA)
DNA: GCAGGAGGTGGCGTCGGGTGGACGGGTGGATTGAAATTTAGGCTGGCACGGTCT
For B6, the binding result in the data set with Ctp1 WT is “binds”.

B7: 54 bp dsDNA (dsDNA)
DNA 1: GCAGGAGGTGGCGTCGGGTGGACGGGTGGATTGAAATTTAGGCTGGCACGGTCT
DNA 2: AGACCGTGCCAGCCTAAATTTCAATCCACCCGTCCACCCGACGCCACCTCCTGC
With B7, the binding result with Ctp1 K231A, with Ctp1 R273A, in the data set with Ctp1 K219A, with Ctp1 K276A and with Ctp1 R275A was “no binding” in each case.

B8: full-length S. pombe Ctp1 (natural protein, UniProt O74986 1-294, looked up)
chain: MNEEEHNKSVHWSIVYRQLGNLLEQYEVEIARLKSQLVLEKKLRIQVEKELESVKTKQISSSASSKVSSNTIQELDSTTDEDEIPGSDTVDEEDPSLNAPFSEKNQSVKIPPHSPTLPVQNASAFVKPISVPLGNVKEEKFLDTNPIGAESFESSDGEMHLRARSPEDMILLRETQPLAPLDINTLGVSDNRQKKGTEKKRPFEPEFLNDDVIRGNKRKALPAYECPDCQKFYELHGPVKESSVAPTWNDENRLGGGSLPNCKHQPLVQKVGRHRKLNIPKPIPNGFWESDFVD
Consider B8, for which the “stoichiometry N” value in “SEC-MALS [2]” is 4.

B9: Ctp1 R32A K41A (natural protein, S. pombe, UniProt O74986 1-294, looked up)
chain: MNEEEHNKSVHWSIVYRQLGNLLEQYEVEIAALKSQLVLEAKLRIQVEKELESVKTKQISSSASSKVSSNTIQELDSTTDEDEIPGSDTVDEEDPSLNAPFSEKNQSVKIPPHSPTLPVQNASAFVKPISVPLGNVKEEKFLDTNPIGAESFESSDGEMHLRARSPEDMILLRETQPLAPLDINTLGVSDNRQKKGTEKKRPFEPEFLNDDVIRGNKRKALPAYECPDCQKFYELHGPVKESSVAPTWNDENRLGGGSLPNCKHQPLVQKVGRHRKLNIPKPIPNGFWESDFVD
With B9, the binding result in “SEC-MALS [3]” is reported as “binds”.

The values above are taken from paper PMC4318798 (Nature structural & molecular biology, 2015).
